Test results from patent US20220135977.
Where two headings read alike, the source gives them in different places.

Target: Influenza A/H3N2 virus strain Ark1819002 (clade 3C.2a; virus protein quantified as hemagglutinin) (Influenza A virus (H3N2)) (UniProt P03437+P03437)
Test: filter

Row | Sequence | binding signal [amol bound] | binding signal (2'-F pyrimidines) [amol bound]
1 | GGGAGAAUUCCGACCAGAAGGGUCGGUGUAUAAUUGUAGUUUUGUUGUUGUUGUUGUUGUUGCCUUUCCUCUCUCCUUCCUCUUCU [P30-10-h1-10] | 60.7 | –
2 | GGGAGAAUUCCGACCAGAAGGCUAUGGGUUGAGUUCUGUAUGGGUGGGUGCCUUUCCUCUCUCCUUCCUCUUCU [P30-10-h1-4] | 232 | –
3 | GGGAGAAUUCCGACCAGAAGUGUCGAUGUGUAUCUUAUUUGUUUGUUUGUUUGUUUGUUUGUCCUUUCCUCUCUCCUUCCUCUUCU [P30-10-h1-3] | 37.3 | –
4 | GGAGCUCAGCCUUCACUGCCAAAAAGUUAGGCCAGCAAAUUGCGAGCUGAUCCGGUGACUGGCUACAGGAGGCCUUGUCCACGGCCGUAUUGGCACCACCGUCGGAUCC [D26(2'-F)] | – | 32.8
5 | GGGAGAAUUCCGACCAGAAGGAACAUUUGUGGGUGGUGUGGGUGGCUGUUCCUUUCCUCUCUCCUUCCUCUUCU [P30-10-h1-9] | 832 | –
6 | GGGAGAAUUCCGACCAGAAGUAGUAGCCCGGGUGUGGGUUUAUGGUCGCCCCUUUCCUCUCUCCUUCCUCUUCU [P30-10-h1-1] | 47.9 | –
7 | GGGAGAAUUCCGACCAGAAGUAGUAGCCCGGGUGUGGGUUUAUGGCCGCCCCUUUCCUCUCUCCUUCCUCUUCU [P30-10-h1-6] | 34.2 | –
8 | GGAGCUCAGCCUUCACUGCCAAAGUGCGAGGCAGUGUGGUGCUGUCCUACGAGUUCUAAAGUUCGUUAGGAAGGCAGCUCAACAUGUUUAACAGGCACCACCGUCGGAUCC [D12] | 0.1 | –
9 | GGGAGAAUUCCGACCAGAAGGCGCGAUUGUGGUUGUGGUGGGUGGGCGCGCCUUUCCUCUCUCCUUCCUCUUCU [P30-10-h1-2] | 166 | –
10 | GGGAGAAUUCCGACCAGAAGUCCCCUCCCUCGUAUCGUAUGUGCGUUUGCCCUUUCCUCUCUCCUUCCUCUUCU [P30-10-h1-5] | 80.3 | –
11 | GGGAGAAUUCCGACCAGAAGUAGUAGCCCGGGUGUGGGUUUAUGGUCGUCCCUUUCCUCUCUCCUUCCUCUUCU [P30-10-h1-7] | 17 | –
12 | GGGAGAAUUCCGACCAGAAGGCGCGAUUGUGUUGUGGUGGGUGGGCGCGCCUUUCCUCUCUCCUUCCUCUUCU [P30-10-h1-8] | 2.87 | –
